B1: truncated TCblR 32-149 (receptor)
chain: not shown
notes: Secreted C-terminal deletion of the extracellular domain, expressed in HEK293 cells, used as culture medium; also called aa 150-233 deleted
B3: TCblR 32-52, 64-233-mycHis (receptor, not shown: small tags and cut ends)
chain: EAAASPLSTPTSAQAAGPSSGSGLCVPLTWRCDRDLDCSDGSDEEECRIEPCTQKGQCPPPPGLPCPCTGVSDCSGGTDKKLRNCSRLACLAGELRCTLSDDCIPLTWRCDGHPDCPDSSDELGCGTNEILPEGDATTMGPPVTLESVTSLRNATTMGPPVTLESVPSVGNATSSSAGDQSGSPTAYGVIA
notes: Secreted, expressed in HEK293 cells, used as culture medium; also called p53-63del; N-terminal 11 residues (aa 53-63) of the first LDLR-A domain deleted
B6: TCblR 32-137, 166-233-mycHis (receptor, not shown: small tags and cut ends)
chain: EAAASPLSTPTSAQAAGPSSGSCPPTKFQCRTSGLCVPLTWRCDRDLDCSDGSDEEECRIEPCTQKGQCPPPPGLPCPCTGVSDCSGGTDKKLRNCSRLACLAGELGCGTNEILPEGDATTMGPPVTLESVTSLRNATTMGPPVTLESVPSVGNATSSSAGDQSGSPTAYGVIA
notes: Secreted, expressed in HEK293 cells, used as culture medium; also called second LDLR-A domain removed
B8: truncated TCblR 32-183 (receptor)
chain: not shown
notes: Secreted C-terminal deletion of the extracellular domain, expressed in HEK293 cells, used as culture medium; also called C-terminal 49 aa deleted (two N-glycosylation sites removed)
B9: recombinant extracellular domain of human TCblR (aa 32-233), untagged secreted form (receptor)
chain: EAAASPLSTPTSAQAAGPSSGSCPPTKFQCRTSGLCVPLTWRCDRDLDCSDGSDEEECRIEPCTQKGQCPPPPGLPCPCTGVSDCSGGTDKKLRNCSRLACLAGELRCTLSDDCIPLTWRCDGHPDCPDSSDELGCGTNEILPEGDATTMGPPVTLESVTSLRNATTMGPPVTLESVPSVGNATSSSAGDQSGSPTAYGVIA
notes: Expressed in HEK 293 cells and secreted into the culture medium; also called TCblR ECD; extracellular TCblR

Columns and labels:
[1] = target: T1, TC-Cbl (recombinant human transcobalamin saturated with cobalamin) (human, UniProt P20062 19-427); assay: radiolabelled TC-Cbl binding, indirect competition with full-length secreted TCblR
T1 construct: also called holo-TC; holoTc
T1 sequence (looked up): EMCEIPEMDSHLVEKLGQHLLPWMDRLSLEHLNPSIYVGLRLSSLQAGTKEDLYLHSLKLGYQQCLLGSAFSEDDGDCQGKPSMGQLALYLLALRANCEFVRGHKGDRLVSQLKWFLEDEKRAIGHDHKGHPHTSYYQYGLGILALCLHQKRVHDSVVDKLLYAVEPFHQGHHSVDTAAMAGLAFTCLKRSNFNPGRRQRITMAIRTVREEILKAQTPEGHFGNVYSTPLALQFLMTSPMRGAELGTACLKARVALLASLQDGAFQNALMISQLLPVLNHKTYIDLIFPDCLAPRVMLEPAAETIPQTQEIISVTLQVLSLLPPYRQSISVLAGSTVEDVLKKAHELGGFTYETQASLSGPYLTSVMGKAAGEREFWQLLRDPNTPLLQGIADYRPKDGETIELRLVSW

[2] = target: T2, TCblR 32-94, 142-233-mycHis (human, UniProt Q9NPF0 32-233); assay: sandwich ELISA, mAb as capture, TCblR construct in HEK293 medium; +++ OD 2-3, ++ OD 1-2, + OD 0.5-1, - OD <0.5
T2 construct: also called TCblR without the CUB domain; region between the two LDLR-A domains deleted

[3] = target: T3, TCblR 32-233-mycHis (human, UniProt Q9NPF0 32-233); assay: as above
T3 construct: Secreted, expressed in HEK293 cells, used as culture medium; also called extracellular TCblR in pcDNA3.1 (-) mycHisA
T3 sequence: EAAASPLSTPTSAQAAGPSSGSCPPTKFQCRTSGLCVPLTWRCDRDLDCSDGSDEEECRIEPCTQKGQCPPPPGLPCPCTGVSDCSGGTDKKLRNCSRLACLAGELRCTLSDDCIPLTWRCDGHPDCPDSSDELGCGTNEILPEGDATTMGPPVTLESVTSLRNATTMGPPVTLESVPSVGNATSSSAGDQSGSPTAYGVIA

[4] = target: B9; assay: as above
[5] = target: B8; assay: as above
[6] = target: B3; assay: as above
[7] = target: B6; assay: sandwich ELISA, mAb as capture
[8] = target: B1; assay: sandwich ELISA, mAb as capture
[9] = target: T1, TC-Cbl (recombinant human …); assay: radiolabelled TC-Cbl binding, WGA-agarose separation
[10] = target: T1, TC-Cbl (recombinant human …); assay: binding and internalization of TC-[57Co]Cbl by transfected HEK293 cells
[11] = target: B6; assay: sandwich ELISA, mAb as capture, TCblR construct in HEK293 medium; +++ OD 2-3, ++ OD 1-2, + OD 0.5-1, - OD <0.5
[12] = target: B8; assay: sandwich ELISA, mAb as capture
[13] = target: T1, TC-Cbl (recombinant human …); assay: radiolabelled TC-Cbl binding to deletion constructs
[14] = target: T1, TC-Cbl (recombinant human …); assay: radiolabelled TC-Cbl binding to mutated secreted receptor

B1
binding result [1]: no binding

B2: mAb 1-25 (antibody, V domains shown)
VH: DVQLQESGPDLVKPSQSLSITCTVTGYSITSDYSWHWIRQFPGNKLEWMGYIHSSGITNYNPSLKSRISITRDTSKNQFFLHLSSMTNEDTATYYCTRPPVVTRYFDVWGAGTTVTVSS
VL: DIVMTQSPSSLTVTAGEKVTMSCKSSQGLLDSGNQKNYLTWYQQKPGQPPKLLIYWASTRKSGVPDRFTGSGSGTDFTLTISSVQAEDLAVYYCQNDYTYPLTFGAGTKLELK
notes: also called TCblRKB1-25
OD [2]: 0.5 to 1 od | OD [3]: 1 to 2 od | OD [4]: 1 to 2 od | OD [5]: 2 to 3 od | OD [6]: 2 to 3 od | OD [7]: < 0.5 od | OD [8]: < 0.5 od

B3
binding result [9]: no binding

B4: TCblR with the cytoplasmic tail deleted, on HEK293 cells (receptor)
chain: EAAASPLSTPTSAQAAGPSSGSCPPTKFQCRTSGLCVPLTWRCDRDLDCSDGSDEEECRIEPCTQKGQCPPPPGLPCPCTGVSDCSGGTDKKLRNCSRLACLAGELRCTLSDDCIPLTWRCDGHPDCPDSSDELGCGTNEILPEGDATTMGPPVTLESVTSLRNATTMGPPVTLESVPSVGNATSSSAGDQSGSPTAYGVIAAAAVLSASLVTATLLLL
notes: Limits derived; also called TCblR without the cytoplasmic domain; membrane-anchored receptor
binding result [10]: binds

B5: mAb 1-23 (antibody, V domains shown)
VH: DVQLQESGPGLVKPSQSLSLTCTVTGYSITSDYAWNWIRQFPGNKLEWMGYIAYTNRTFYTPSLESRISITRDTSKNQFFLQLNSVTTEDTGTYYCARNSGKTYGFTYWGQGTLVTVSA
VL: DIVMSQSPSSLVVSIGEKVTMSCKSSQRLLYSANQKNYLAWYQQKPGQSPKLLIYWASTRESGVPDRFTGSGSGTDFTLTISSVRAEDLALYYCQQFYNYPLTFGSGTKLEIK
OD [11]: 1 to 2 od | OD [2]: 1 to 2 od | OD [3]: 1 to 2 od | OD [4]: 1 to 2 od | OD [6]: 1 to 2 od | OD [8]: < 0.5 od | OD [12]: < 0.5 od

B6
binding result [13]: no binding

B7: mAb 1-19 (antibody, V domains shown)
VH: DVQLQESGPGLVKPSQSLSLTCTVLGYSITSDYAWNWIRQFPGNKLEWMGYISFSGNIRYNPSLESRISITRDTSKSQFFLQLNSVTTEDRGTYYCARAGLGRVFYFDYWGQGTALTVSS
VL: DIVMSQSPSSLAVSVGEKVTMSCKSSQSLLYSSNQKNYLAWYQQKPGQSPQLLIFRASTRESGVPDRFTGSGSGTDFTLTISSVKPEDLAVYFCQQYYNYPFTFGSGTTLEIK
notes: also called TCblRKB 1-19; monoclonal antibody 1-19
OD [11]: 1 to 2 od | OD [2]: 1 to 2 od | OD [3]: 2 to 3 od | OD [4]: 1 to 2 od | OD [6]: 2 to 3 od | OD [8]: < 0.5 od | OD [12]: < 0.5 od

B8
binding result [1]: binds

B9
binding result [9]: binds

B10: extracellular TCblR mycHis mutant pDE163, 164>LL (receptor, not shown: small tags and cut ends)
chain: EAAASPLSTPTSAQAAGPSSGSCPPTKFQCRTSGLCVPLTWRCDRDLDCSDGSDEEECRIEPCTQKGQCPPPPGLPCPCTGVSDCSGGTDKKLRNCSRLACLAGELRCTLSDDCIPLTWRCDGHPDCPDSSLLLGCGTNEILPEGDATTMGPPVTLESVTSLRNATTMGPPVTLESVPSVGNATSSSAGDQSGSPTAYGVIA
notes: Made on the extracellular TCblR cDNA in pcDNA3.1 (-) mycHisA, expressed in HEK293 cells; also called D163L, E164L
binding result [14]: no binding

B11: extracellular TCblR mycHis mutant pDE85, 86>LL (receptor, not shown: small tags and cut ends)
chain: EAAASPLSTPTSAQAAGPSSGSCPPTKFQCRTSGLCVPLTWRCDRDLDCSDGSLLEECRIEPCTQKGQCPPPPGLPCPCTGVSDCSGGTDKKLRNCSRLACLAGELRCTLSDDCIPLTWRCDGHPDCPDSSDELGCGTNEILPEGDATTMGPPVTLESVTSLRNATTMGPPVTLESVPSVGNATSSSAGDQSGSPTAYGVIA
notes: Made on the extracellular TCblR cDNA in pcDNA3.1 (-) mycHisA, expressed in HEK293 cells; also called D85L, E86L
binding result [14]: no binding

Source: US20130164309A1 (RESEARCH FOUNDATION OF STATE UNIVERSITY OF NEW YORK, published 2013)
